Source: publication PMC2192122

biological target: MHC class II molecule I-Ad (mouse (endogenous in A20 lymphoma cells)); test: radioligand binding; conditions: not given

IC50 [nM]	Molecule
131	OVA peptide 323-339 (unlabeled) (from UniProt P01012 324-340)

same assay, conditions: scale: relative to unlabeled OVA peptide 323-339

relative binding to MHC	Molecule
0.1	SWM peptide 105-116-[G108] (from UniProt P02185 106-117)
1.8	EFISEAIIPVLH [SWM peptide 105-116-[P113]]
0.013	LEFIGEAIIHVL [SWM peptide 104-115-[G108]]
0.18	EFISEAIIHLLH [SWM peptide 105-116-[L114]]
0.01	EFISEAIIHILH [SWM peptide 105-116-[I114]]
0.04	YLEFIGEAIIHV [SWM peptide 103-114-[G108]]
0.59	AIIHVLHSRHPG [sperm whale myoglobin (SWM) peptide 110-121]
1.5	EFISEAIIHVLH [sperm whale myoglobin (SWM) peptide 105-116]
0.003	IKYLEFIGEAII [SWM peptide 101-112-[G108]]
0.011	KYLEFIGEAIIH [SWM peptide 102-113-[G108]]
0.34	EFGSEAIIHVLH [SWM peptide 105-116-[G107]]
